The target in assay [1] is K11 (human). The experiment in a line: immunoprecipitation from HCT-116 cell extract; gel region of 62 kDa or more; quantitative mass spectrometry with stable isotope-labeled peptides [panel A].
Assay [2] has as its target K27 (human). The assay is described as above.
Assay [3] concerns the target K29 (human). The assay is described as above.
The target of assay [4] is K33 (human). The assay is described as above.
The target of assay [5] is K48 (human). The description is as above.
For assay [6], the target named is K6 (human). The assay is described as above.
In assay [7] the target is K63 (human). The description is as above.
Assay [8] has as its target M1 (human). The description is as above.
In assay [9] the target is polyubiquitinated substrates (HCT-116 cell extract). The description is as above.
For assay [10], the target named is K11 (human). In words: immunoprecipitation from HCT-116 cell extract; quantitative mass spectrometry; pie chart [panel B].
In assay [11] the target is K27 (human). Described as above.
Assay [12] has as its target K29 (human). The assay is described as above.
In assay [13] the target is K33 (human). Described as above.
For assay [14], the target named is K48 (human). The assay is described as above.
In assay [15] the target is K6 (human). Described as above.
The target of assay [16] is K63 (human). The assay is described as above.
The target in assay [17] is M1 (human). The description is as above.
The target in assay [18] is polyubiquitinated substrates (HCT-116 cell extract). The experiment in a line: immunoprecipitation (Halo tag-fused wild-type monobody) from HCT-116 cell extract; gel region of 62 kDa or more; quantitative mass spectrometry with stable isotope-labeled peptides [panel A].

In turn, Control IgG (antibody) displayed a K11 chain-derived peptide in the immunoprecipitate in the assay with K11 (human) [1] of 0.02 fmol. In the assay with K27 (human) [2], this substance registered a K27 chain-derived peptide in the immunoprecipitate of 0.03 fmol. Besides, the K29 chain-derived peptide in the immunoprecipitate with K29 (human) [3] stood at 0 fmol. The same substance had a K33 chain-derived peptide in the immunoprecipitate in the assay with K33 (human) [4] of 0 fmol. The substance also returned a K48 chain-derived peptide in the immunoprecipitate in the assay with K48 (human) [5] of 0.04 fmol. The substance further came in with a K6 chain-derived peptide in the immunoprecipitate with K6 (human) [6] of 0 fmol. In the assay with K63 (human) [7], this substance came in with a K63 chain-derived peptide in the immunoprecipitate of 0 fmol. The M1 chain-derived peptide in the immunoprecipitate with M1 (human) [8] was 0 fmol. For the same substance, in assay [9], the EST peptide (…) in the immunoprecipitate was 0.19 fmol and the total ubiquitin in the immunoprecipitate (EST + K63 peptides) is 0.19 fmol.

As to “anti-polyubiquitin monoclonal antibody FK2 (0918-2, Nippon Bio-Test)”, the percentage of this chain among the 8 ubiquitin chain-derived peptides in the immunoprecipitate (control subtracted) came out at 7% with K11 (human) [10]; 0% in the assay with K27 (human) [11]; 8% in the assay with K29 (human) [12]; 0% with K33 (human) [13]; 60% with K48 (human) [14]; 5% with K6 (human) [15]. In addition, the percentage of this chain among the 8 ubiquitin chain-derived peptides in the immunoprecipitate (control subtracted) with K63 (human) [16] was 20%; in the assay with M1 (human) [17], 0%. The K11 chain-derived peptide in the immunoprecipitate with K11 (human) [1] worked out at 3.62 fmol. For the same substance, the K27 chain-derived peptide in the immunoprecipitate with K27 (human) [2] amounted to 0.11 fmol. Further, the K29 chain-derived peptide in the immunoprecipitate in the assay with K29 (human) [3] turned out to be 3.69 fmol. This substance returned a K33 chain-derived peptide in the immunoprecipitate in the assay with K33 (human) [4] of 0.2 fmol. The same substance yielded a K48 chain-derived peptide in the immunoprecipitate in the assay with K48 (human) [5] of 29.1 fmol. The K6 chain-derived peptide in the immunoprecipitate with K6 (human) [6] came out at 2.15 fmol. This substance also returned a K63 chain-derived peptide in the immunoprecipitate with K63 (human) [7] of 9.59 fmol. The substance further yielded an M1 chain-derived peptide in the immunoprecipitate in the assay with M1 (human) [8] of 0.02 fmol. Further, the EST peptide (…) in the immunoprecipitate in [9] is 106 fmol. In assay [9], the total ubiquitin in the immunoprecipitate (EST + K63 peptides) turned out to be 116 fmol.

On to “anti-ubiquitin antibody P4D1 (sc-8017, Santa Cruz)”, for which the percentage of this chain among the 8 ubiquitin chain-derived peptides in the immunoprecipitate (control subtracted) came to 3% with K11 (human) [10]; 0% with K27 (human) [11]; 43% in the assay with K29 (human) [12]; 0% with K33 (human) [13]; 46% with K48 (human) [14]; 3% in the assay with K6 (human) [15]. The percentage of this chain among the 8 ubiquitin chain-derived peptides in the immunoprecipitate (control subtracted) stood at 5% in the assay with K63 (human) [16] and 0% in the assay with M1 (human) [17]. In the assay with K11 (human) [1], this substance had a K11 chain-derived peptide in the immunoprecipitate of 1.65 fmol. Besides, in the assay with K27 (human) [2], the K27 chain-derived peptide in the immunoprecipitate came out at 0.08 fmol. Also, the K29 chain-derived peptide in the immunoprecipitate with K29 (human) [3] stood at 20.1 fmol. Also, the K33 chain-derived peptide in the immunoprecipitate in the assay with K33 (human) [4] is 0.11 fmol. Moreover, in the assay with K48 (human) [5], the K48 chain-derived peptide in the immunoprecipitate turned out to be 21.8 fmol. This substance also displayed a K6 chain-derived peptide in the immunoprecipitate with K6 (human) [6] of 1.32 fmol. The same substance yielded a K63 chain-derived peptide in the immunoprecipitate with K63 (human) [7] of 2.47 fmol. In addition, the M1 chain-derived peptide in the immunoprecipitate with M1 (human) [8] came out at 0 fmol. The same substance came in with an EST peptide (…) in the immunoprecipitate in assay [9] of 72.1 fmol. In addition, the total ubiquitin in the immunoprecipitate (EST + K63 peptides) in assay [9] is 74.5 fmol.

For “wild-type Monobody (FN3) (designed binder)”, in assay [18], the EST peptide (…) in the immunoprecipitate was 12.3 fmol and the total ubiquitin in the immunoprecipitate (EST + K63 peptides) was determined as 13 fmol.

The values above are taken from patent US20250129143A1.
